Measurements as given in patent US20250109193A1 (FLAGSHIP PIONEERING INNOVATIONS VI, published 2025).
Where a chain is given by its changes, count along the chain named. Each block holds one binder with its values, some of them ahead of it.

Key:
cynomolgus monkey TSLP [1] = biological target: T1, cynomolgus monkey TSLP (cynomolgus monkey); test: indirect ELISA, coated cyno TSLP; 95% CI in brackets
T1 construct: Recombinant, bought (ACROBiosystems); also called cynoTSLP; cyno TSLP
T1 chain: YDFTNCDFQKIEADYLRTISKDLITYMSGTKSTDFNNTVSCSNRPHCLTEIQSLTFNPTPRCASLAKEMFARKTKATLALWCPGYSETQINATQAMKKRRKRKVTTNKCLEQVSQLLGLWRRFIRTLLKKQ
Method: (§1) The next day, the plates were washed three times with ELISA wash buffer and blocked with ELISA assay diluent B (BioLegend) for one hour at room temperature (RT). […] Antibody binding was assessed using an 8-point titration curve in triplicates (1:3 serial dilution starting at 10 μg/mL). The plate was washed three times with ELISA wash buffer, and HRP-conjugated anti-human IgG-HRP secondary antibody (Jackson ImmunoResearch Laboratories, Inc.) was added to wells at a 1:5000 dilution in 1×ELISA assay diluent. Secondary antibody was added to detect binding of the primary antibody to the antigen. The plate was incubated for 30 minutes at room temperature with the secondary detection antibody, then the plates were washed three times with ELISA wash buffer and developed with TMB substrate solution (Invitrogen, Waltham, MA). The HRP enzymatic reaction was stopped after about 1 minute with acidic stop solution (Invitrogen), and the absorbance at 450 nm on a Biotek plate reader.
(§2) The EC₅₀ values were calculated using Graphpad Prism 9.2.0 by fitting a four-parameter non-linear regression curve to the average absorbance values of three technical replicates per concentration with three independent experiments. […] N=4 independent experiments with 3 technical replicates. […] N=3 independent experiments with 3 technical replicates.

[2] = biological target: T2, human thymic stromal lymphopoietin (TSLP) (human, UniProt Q969D9 29-159); test: cell-based or functional assay
cynomolgus monkey TSLP [3] = biological target: T1, cynomolgus monkey TSLP; test: cell-based or functional assay
mouse TSLP = biological target: T3, mouse TSLP (mouse, UniProt Q9JIE6 20-140); test: direct ELISA: plate coated with 2 µg/mL mouse TSLP, anti-human IgG-HRP, absorbance at 450 nm
T3 construct: also called mouse TSLP cytokine
T3 sequence (looked up): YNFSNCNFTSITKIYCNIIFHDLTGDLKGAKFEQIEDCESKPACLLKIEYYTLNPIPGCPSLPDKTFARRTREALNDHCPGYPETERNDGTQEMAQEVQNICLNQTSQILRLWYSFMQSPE
Method: as §1, §2

[4] = biological target: T2, human thymic stromal lymphopoietin …; test: indirect ELISA, coated human TSLP; 95% CI in brackets
Method: as §1, §2

human IL-7 = biological target: T4, human IL-7 (human, UniProt P13232 26-177); test: direct ELISA: plate coated with 2 µg/mL human IL-7, anti-human IgG-HRP, absorbance at 450 nm
T4 construct: also called hIL-7
T4 sequence (looked up): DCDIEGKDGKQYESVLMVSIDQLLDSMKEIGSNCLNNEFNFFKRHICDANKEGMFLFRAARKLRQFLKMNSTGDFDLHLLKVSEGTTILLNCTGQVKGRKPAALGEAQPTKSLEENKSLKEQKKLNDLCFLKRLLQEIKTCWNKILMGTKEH

[5] = biological target: T2, human thymic stromal lymphopoietin …; test: KinExA, solution equilibrium, 25 C
Method: The solution equilibrium binding experiments were performed using KinExA 3200 instrument equipped with an autosampler (Sapidyne Instruments, Boise, ID, USA). All analyses were performed at 25° C., and all samples were prepared in 1× phosphate-buffered saline (PBS) filtered buffer supplemented with 1 mg/mL bovine serum albumin (BSA) and 0.02% sodium azide. […] The beads were washed with blocking buffer (1 M Tris supplemented with 10 mg/mL BSA, pH 8.0) and rocked for 1 hour.
The sample injection volumes and flow rates were varied depending upon the antibody tested. […] The concentration, volume and flow rate of the secondary antibody were varied to achieve a signal at less than 1.0 V.
A 1:1 binding equilibrium model was used with the titrant selected as the reference concentration. The drift correction option was used where appropriate.

[6] = biological target: T2, human thymic stromal lymphopoietin …; test: blocking ELISA: antibody titrated against hTSLP-biotin, coated hTSLPR/hIL-7Rα-Fc
Method: A 96 well half area flat bottom plate was coated with 50 μL of recombinant heterodimeric human TSLPR and human IL-7Rα Fe tagged fusion protein (2 μg/mL) in ELISA coating buffer. The plate was incubated overnight at 4° C. and was washed thrice with 150 μL ELISA Wash Buffer (1×PBS-Tween 0.5%) the next day. The plate was blocked with 50 μL of ELISA assay diluent for one hour at 37° C. and was washed three times with 150 μL of ELISA wash buffer. […] The ELISA plate was incubated for 1 hour at 37° C. followed by washing three times with ELISA wash buffer. HRP-Streptavidin (Thermo Fisher Scientific) was diluted 1:2000 in ELISA assay diluent 50 μl was added to each well and incubated for 30 minutes at 37° C. followed by washing three times with ELISA wash buffer. The ELISA was developed by addition of 50 μL of TMB substrate (Thermo Fisher Scientific) and incubation for 2-3 minutes at room temperature (protected from light). The reaction was stopped with acidic stop solution (Thermo Fisher Scientific), and the absorbance was read at 450 nm wavelength using a standard plate reader. Percent inhibition of signal and IC₅₀ values were determined.
A blocking ELISA was performed by coating an ELISA plate with hTSLPR overnight. […] The ELISA plate was incubated for 1 hour at 37° C., followed by washing of the plate. […] The ELISA was developed with TMB substrate, and the HRP enzymatic reaction was stopped with sulfuric acid solution.

[7] = biological target: T2, human thymic stromal lymphopoietin …; test: indirect ELISA, coated recombinant hTSLP
Method: The next day, the plate was washed three times with ELISA Wash Buffer (PBS-Tween 0.5%), blocked with 1×ELISA assay diluent (BioLegend) for one hour. […] The plate was washed three times with ELISA Wash Buffer, and horseradish peroxidase (HRP)-conjugated anti-human IgG Fc secondary antibody (Promega, Madison, WI) at 1:2000 dilution in 1×ELISA assay diluent was added to detect binding of the primary antibody to the antigen. The plate was incubated for 30 minutes at 37° C. with the secondary detection antibody, then the plate was washed and developed with tetramethyl benzidine (TMB) substrate solution (Thermo Fisher Scientific, Waltham, MA). The HRP enzymatic reaction was stopped after about 1 minute with acidic stop solution (Thermo Fisher Scientific), and the absorbance at 450 nm was determined using a standard plate reader. The EC₅₀ values were calculated by fitting a four-parameter non-linear regression line to the average of two technical replicates per concentration.

B1: AB-2a (antibody, human IgG1, lambda)
heavy: not shown
light: SYVLTQPPSVSVAPGQTARITCGGNNIGSKSVHWYQQKPGQAPVLVVYDDSDRPSWIPERFSGSNSGNTATLTISRGEAGDEADYYCQIWDSSSSLVVFGGGTKLTVLGQPKAAPSVTLFPPSSEELQANKATLVCLISDFYPGAVTVAWKADSSPVKAGVETTTPSKQSNNKYAASSYLSLTPEQWKSHRSYSCQVTHEGSTVEKTVAPTECS
EC80 (cynomolgus monkey TSLP [1]): 0.1 µg/mL | IC50, human TSLPR/IL-7Rα Ba/F3 STAT5-luciferase assay [2]: 0.02 µg/mL | IC50, cyno TSLPR/IL-7Rα Ba/F3 STAT5-luciferase assay (cynomolgus monkey TSLP [3]): 0.03 µg/mL | binding result (mouse TSLP): no binding (tested: about 5 µg/ml) | EC50 [4]: 0.03 µg/mL | EC80 [4]: 0.09 µg/mL | EC90 [4]: 0.15 µg/mL

B2: AB-2b (antibody, human IgG1, lambda)
heavy: QMQLVESGGGVVQPGRSLRLSCAASGFTFRTYGMHWVRQAPGKGLEWVAVVWYDGSYTHYADSVKGRFTITRDNSKNTLNLQMNSLRAEDTAVYYCARSPQWEEIFEAMDIWGQGTMVTVSSASTKGPSVFPLAPSSKSTSGGTAALGCLVKDYFPEPVTVSWNSGALTSGVHTFPAVLQSSGLYSLSSVVTVPSSSLGTQTYICNVNHKPSNTKVDKRVEPKSCDKTHTCPPCPAPELLGGPSVFLFPPKPKDTLYITREPEVTCVVVDVSHEDPEVKFNWYVDGVEVHNAKTKPREEQYNSTYRVVSVLTVLHQDWLNGKEYKCKVSNKALPAPIEKTISKAKGQPREPQVYTLPPSREEMTKNQVSLTCLVKGFYPSDIAVEWESNGQPENNYKTTPPVLDSDGSFFLYSKLTVDKSRWQQGNVFSCSVMHEALHNHYTQKSLSLSPGK
light: B1 light
EC80 (cynomolgus monkey TSLP [1]): 0.1 µg/mL | IC50, human TSLPR/IL-7Rα Ba/F3 STAT5-luciferase assay [2]: 0.03 µg/mL | IC50, cyno TSLPR/IL-7Rα Ba/F3 STAT5-luciferase assay (cynomolgus monkey TSLP [3]): 0.04 µg/mL | binding result (mouse TSLP): no binding (tested: about 5 µg/ml) | EC50 [4]: 0.03 µg/mL | EC80 [4]: 0.1 µg/mL | EC90 [4]: 0.18 µg/mL

B3: Reference Antibody (antibody, human IgG2, lambda, V domains shown)
VH: QMQLVESGGGVVQPGRSLRLSCAASGFTFRTYGMHWVRQAPGKGLEWVAVIWYDGSNKHYADSVKGRFTITRDNSKNTLNLQMNSLRAEDTAVYYCARAPQWELVHEAFDIWGQGTMVTVSS
VL: SYVLTQPPSVSVAPGQTARITCGGNNLGSKSVHWYQQKPGQAPVLVVYDDSDRPSWIPERFSGSNSGNTATLTISRGEAGDEADYYCQVWDSSSDHVVFGGGTKLTVLG
notes: Comparator anti-TSLP antibody with an IgG2 heavy chain constant domain and lambda light chain
binding result (human IL-7): no binding (tested: about 5 µg/ml) | binding result (mouse TSLP): no binding (tested: about 5 µg/ml)

B4: AB-8 (antibody, V domains shown)
VH: B3 VH with N57Y, K58T, A99S, L104D, V105I, H106F
VL: SYVLTQPPSVSVAPGQTARITCGGNNIGSKSVHWYQQKPGQAPVLVVYDDSDRPSWIPERFSGSNSGNTATLTISRGEAGDEADYYCQVWDSSSSLVVFGGGTKLTVL
Kd [5]: 0.335 pM

B5: AB-11 (antibody, V domains shown)
VH: B3 VH with W52S, D54S, N57Y, K58I, A97T, A99S, L104E, H106Y, F109L
VL: B4 VL with K30F, D91S, S93T, S95R, L96H
Kd [5]: 0.754 pM | IC50 [6]: 0.243 nM | EC50 [7]: 0.173 nM

B8: AB-13 (antibody, V domains shown)
VH: B3 VH with W52S, N57T, L104S, H106Y
VL: B4 VL with I27L, K30F, S94E, S95D
IC50 [6]: 0.223 nM | EC50 [7]: 0.23 nM

B9: AB-12 (antibody, V domains shown)
VH: B3 VH with I51V, K58T, L104S
VL: B4 VL with S29R, K30F, D91V, S93T, S95D, L96K
Kd [5]: 1.02 pM | IC50 [6]: 0.29 nM | EC50 [7]: 0.291 nM

B10: AB-10 (antibody, V domains shown)
VH: QMQLVESGGGVVQPGRSLRLSCAASGFTFRTYGMHWVRQAPGKGLEWVAVIWYSGTTTHYADSVKGRFTITRDNSKNTLNLQMNSLRAEDTAVYYCSRSPQWEDIFESMDIWGQGTMVTVSS
VL: B4 VL with S31N, S94D, S95F
Kd [5]: 0.395 pM | IC50 [6]: 0.251 nM | EC50 [7]: 0.286 nM

B13: AB-14 (antibody, V domains shown)
VH: B3 VH with N57T
VL: B4 VL with S31N, S92E, S95D, L96E
Kd [5]: 0.877 pM | IC50 [6]: 0.186 nM | EC50 [7]: 0.264 nM

B14: AB-3 (antibody, V domains shown)
VH: B10 VH with S54D, T57Y, S97A, D104S, S108A, M109F
VL: B4 VL
Kd [5]: 0.302 pM | IC50 [6]: 0.232 nM | EC50 [7]: 0.237 nM

B17: AB-9 (antibody, V domains shown)
VH: B3 VH with N57Y, K58T, A99S, L104S, V105I, H106F
VL: B4 VL
Kd [5]: 0.496 pM | IC50 [6]: 0.227 nM

Other lines, results leading:

Kd [5]: 0.133 pM | EC50 [7]: 0.397 nM
B6: AB-6 (antibody, V domains shown)
VH: B10 VH with I51V, S54D, T56S, T57D, T58I
VL: B4 VL with V89I, S95D, L96H

Kd [5]: 0.14 pM | IC50 [6]: 0.246 nM | EC50 [7]: 0.264 nM
B7: AB-5 (antibody, V domains shown)
VH: B10 VH with I51V, S54D, T56Y, T57D
VL: B4 VL with I27L, S92M, S95D

Kd [5]: 0.208 pM | EC50 [7]: 0.26 nM
B11: AB-4 (antibody, V domains shown)
VH: B10 VH with T56S, T57D, S97A, I111V
VL: B4 VL with N26Y, K30F, V89I, W90Y, D91V, S93A, S95R

Kd [5]: 0.208 pM | EC50 [7]: 0.265 nM
B12: AB-1 (antibody, V domains shown)
VH: B10 VH with I51V, T56S, T57Y, S108A
VL: B4 VL

Kd [5]: 0.123 pM | IC50 [6]: 0.29 nM | EC50 [7]: 0.204 nM
B15: AB-2 (antibody, human IgG1, V domains shown)
VH: B10 VH with I51V, S54D, T56S, T57Y, S97A, D104E, S108A
VL: B4 VL with V89I

Kd [5]: 0.184 pM | IC50 [6]: 0.162 nM | EC50 [7]: 0.29 nM
B16: AB-7 (antibody, V domains shown)
VH: B10 VH with T56A, T57Y, T58I, S108A
VL: B4 VL with I27L, K30Y, S92M
